In assay [1] the target is T1, ADAMTS-5 lacking the C-terminal thrombospondin domain (UniProt Q9UNA0 262-874).
T1 sequence (looked up): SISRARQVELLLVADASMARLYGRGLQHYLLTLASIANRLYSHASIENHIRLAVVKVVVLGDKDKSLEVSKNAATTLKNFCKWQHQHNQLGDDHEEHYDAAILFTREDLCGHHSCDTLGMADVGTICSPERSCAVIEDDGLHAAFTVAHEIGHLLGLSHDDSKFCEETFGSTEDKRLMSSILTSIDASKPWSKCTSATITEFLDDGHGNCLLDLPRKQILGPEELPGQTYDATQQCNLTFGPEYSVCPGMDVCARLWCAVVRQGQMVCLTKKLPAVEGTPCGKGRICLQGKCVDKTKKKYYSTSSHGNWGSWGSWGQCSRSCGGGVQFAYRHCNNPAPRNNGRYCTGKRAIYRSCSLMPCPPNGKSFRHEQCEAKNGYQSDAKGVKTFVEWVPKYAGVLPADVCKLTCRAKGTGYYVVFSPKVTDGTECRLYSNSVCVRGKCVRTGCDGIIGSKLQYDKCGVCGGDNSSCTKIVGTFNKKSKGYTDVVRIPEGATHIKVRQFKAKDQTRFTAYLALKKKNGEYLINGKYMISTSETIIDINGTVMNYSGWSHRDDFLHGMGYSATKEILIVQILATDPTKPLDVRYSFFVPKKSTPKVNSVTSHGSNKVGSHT
Description: steady-state enzyme inhibition kinetics.

The target of assay [2] is LRP-1 ectodomain (low-density lipoprotein receptor-related protein 1) (UniProt Q07954 20-4419). The experiment in a line: ELISA.
Sequence of LRP-1 ectodomain (low-density lipoprotein receptor-related protein 1) (Q07954 20-4419): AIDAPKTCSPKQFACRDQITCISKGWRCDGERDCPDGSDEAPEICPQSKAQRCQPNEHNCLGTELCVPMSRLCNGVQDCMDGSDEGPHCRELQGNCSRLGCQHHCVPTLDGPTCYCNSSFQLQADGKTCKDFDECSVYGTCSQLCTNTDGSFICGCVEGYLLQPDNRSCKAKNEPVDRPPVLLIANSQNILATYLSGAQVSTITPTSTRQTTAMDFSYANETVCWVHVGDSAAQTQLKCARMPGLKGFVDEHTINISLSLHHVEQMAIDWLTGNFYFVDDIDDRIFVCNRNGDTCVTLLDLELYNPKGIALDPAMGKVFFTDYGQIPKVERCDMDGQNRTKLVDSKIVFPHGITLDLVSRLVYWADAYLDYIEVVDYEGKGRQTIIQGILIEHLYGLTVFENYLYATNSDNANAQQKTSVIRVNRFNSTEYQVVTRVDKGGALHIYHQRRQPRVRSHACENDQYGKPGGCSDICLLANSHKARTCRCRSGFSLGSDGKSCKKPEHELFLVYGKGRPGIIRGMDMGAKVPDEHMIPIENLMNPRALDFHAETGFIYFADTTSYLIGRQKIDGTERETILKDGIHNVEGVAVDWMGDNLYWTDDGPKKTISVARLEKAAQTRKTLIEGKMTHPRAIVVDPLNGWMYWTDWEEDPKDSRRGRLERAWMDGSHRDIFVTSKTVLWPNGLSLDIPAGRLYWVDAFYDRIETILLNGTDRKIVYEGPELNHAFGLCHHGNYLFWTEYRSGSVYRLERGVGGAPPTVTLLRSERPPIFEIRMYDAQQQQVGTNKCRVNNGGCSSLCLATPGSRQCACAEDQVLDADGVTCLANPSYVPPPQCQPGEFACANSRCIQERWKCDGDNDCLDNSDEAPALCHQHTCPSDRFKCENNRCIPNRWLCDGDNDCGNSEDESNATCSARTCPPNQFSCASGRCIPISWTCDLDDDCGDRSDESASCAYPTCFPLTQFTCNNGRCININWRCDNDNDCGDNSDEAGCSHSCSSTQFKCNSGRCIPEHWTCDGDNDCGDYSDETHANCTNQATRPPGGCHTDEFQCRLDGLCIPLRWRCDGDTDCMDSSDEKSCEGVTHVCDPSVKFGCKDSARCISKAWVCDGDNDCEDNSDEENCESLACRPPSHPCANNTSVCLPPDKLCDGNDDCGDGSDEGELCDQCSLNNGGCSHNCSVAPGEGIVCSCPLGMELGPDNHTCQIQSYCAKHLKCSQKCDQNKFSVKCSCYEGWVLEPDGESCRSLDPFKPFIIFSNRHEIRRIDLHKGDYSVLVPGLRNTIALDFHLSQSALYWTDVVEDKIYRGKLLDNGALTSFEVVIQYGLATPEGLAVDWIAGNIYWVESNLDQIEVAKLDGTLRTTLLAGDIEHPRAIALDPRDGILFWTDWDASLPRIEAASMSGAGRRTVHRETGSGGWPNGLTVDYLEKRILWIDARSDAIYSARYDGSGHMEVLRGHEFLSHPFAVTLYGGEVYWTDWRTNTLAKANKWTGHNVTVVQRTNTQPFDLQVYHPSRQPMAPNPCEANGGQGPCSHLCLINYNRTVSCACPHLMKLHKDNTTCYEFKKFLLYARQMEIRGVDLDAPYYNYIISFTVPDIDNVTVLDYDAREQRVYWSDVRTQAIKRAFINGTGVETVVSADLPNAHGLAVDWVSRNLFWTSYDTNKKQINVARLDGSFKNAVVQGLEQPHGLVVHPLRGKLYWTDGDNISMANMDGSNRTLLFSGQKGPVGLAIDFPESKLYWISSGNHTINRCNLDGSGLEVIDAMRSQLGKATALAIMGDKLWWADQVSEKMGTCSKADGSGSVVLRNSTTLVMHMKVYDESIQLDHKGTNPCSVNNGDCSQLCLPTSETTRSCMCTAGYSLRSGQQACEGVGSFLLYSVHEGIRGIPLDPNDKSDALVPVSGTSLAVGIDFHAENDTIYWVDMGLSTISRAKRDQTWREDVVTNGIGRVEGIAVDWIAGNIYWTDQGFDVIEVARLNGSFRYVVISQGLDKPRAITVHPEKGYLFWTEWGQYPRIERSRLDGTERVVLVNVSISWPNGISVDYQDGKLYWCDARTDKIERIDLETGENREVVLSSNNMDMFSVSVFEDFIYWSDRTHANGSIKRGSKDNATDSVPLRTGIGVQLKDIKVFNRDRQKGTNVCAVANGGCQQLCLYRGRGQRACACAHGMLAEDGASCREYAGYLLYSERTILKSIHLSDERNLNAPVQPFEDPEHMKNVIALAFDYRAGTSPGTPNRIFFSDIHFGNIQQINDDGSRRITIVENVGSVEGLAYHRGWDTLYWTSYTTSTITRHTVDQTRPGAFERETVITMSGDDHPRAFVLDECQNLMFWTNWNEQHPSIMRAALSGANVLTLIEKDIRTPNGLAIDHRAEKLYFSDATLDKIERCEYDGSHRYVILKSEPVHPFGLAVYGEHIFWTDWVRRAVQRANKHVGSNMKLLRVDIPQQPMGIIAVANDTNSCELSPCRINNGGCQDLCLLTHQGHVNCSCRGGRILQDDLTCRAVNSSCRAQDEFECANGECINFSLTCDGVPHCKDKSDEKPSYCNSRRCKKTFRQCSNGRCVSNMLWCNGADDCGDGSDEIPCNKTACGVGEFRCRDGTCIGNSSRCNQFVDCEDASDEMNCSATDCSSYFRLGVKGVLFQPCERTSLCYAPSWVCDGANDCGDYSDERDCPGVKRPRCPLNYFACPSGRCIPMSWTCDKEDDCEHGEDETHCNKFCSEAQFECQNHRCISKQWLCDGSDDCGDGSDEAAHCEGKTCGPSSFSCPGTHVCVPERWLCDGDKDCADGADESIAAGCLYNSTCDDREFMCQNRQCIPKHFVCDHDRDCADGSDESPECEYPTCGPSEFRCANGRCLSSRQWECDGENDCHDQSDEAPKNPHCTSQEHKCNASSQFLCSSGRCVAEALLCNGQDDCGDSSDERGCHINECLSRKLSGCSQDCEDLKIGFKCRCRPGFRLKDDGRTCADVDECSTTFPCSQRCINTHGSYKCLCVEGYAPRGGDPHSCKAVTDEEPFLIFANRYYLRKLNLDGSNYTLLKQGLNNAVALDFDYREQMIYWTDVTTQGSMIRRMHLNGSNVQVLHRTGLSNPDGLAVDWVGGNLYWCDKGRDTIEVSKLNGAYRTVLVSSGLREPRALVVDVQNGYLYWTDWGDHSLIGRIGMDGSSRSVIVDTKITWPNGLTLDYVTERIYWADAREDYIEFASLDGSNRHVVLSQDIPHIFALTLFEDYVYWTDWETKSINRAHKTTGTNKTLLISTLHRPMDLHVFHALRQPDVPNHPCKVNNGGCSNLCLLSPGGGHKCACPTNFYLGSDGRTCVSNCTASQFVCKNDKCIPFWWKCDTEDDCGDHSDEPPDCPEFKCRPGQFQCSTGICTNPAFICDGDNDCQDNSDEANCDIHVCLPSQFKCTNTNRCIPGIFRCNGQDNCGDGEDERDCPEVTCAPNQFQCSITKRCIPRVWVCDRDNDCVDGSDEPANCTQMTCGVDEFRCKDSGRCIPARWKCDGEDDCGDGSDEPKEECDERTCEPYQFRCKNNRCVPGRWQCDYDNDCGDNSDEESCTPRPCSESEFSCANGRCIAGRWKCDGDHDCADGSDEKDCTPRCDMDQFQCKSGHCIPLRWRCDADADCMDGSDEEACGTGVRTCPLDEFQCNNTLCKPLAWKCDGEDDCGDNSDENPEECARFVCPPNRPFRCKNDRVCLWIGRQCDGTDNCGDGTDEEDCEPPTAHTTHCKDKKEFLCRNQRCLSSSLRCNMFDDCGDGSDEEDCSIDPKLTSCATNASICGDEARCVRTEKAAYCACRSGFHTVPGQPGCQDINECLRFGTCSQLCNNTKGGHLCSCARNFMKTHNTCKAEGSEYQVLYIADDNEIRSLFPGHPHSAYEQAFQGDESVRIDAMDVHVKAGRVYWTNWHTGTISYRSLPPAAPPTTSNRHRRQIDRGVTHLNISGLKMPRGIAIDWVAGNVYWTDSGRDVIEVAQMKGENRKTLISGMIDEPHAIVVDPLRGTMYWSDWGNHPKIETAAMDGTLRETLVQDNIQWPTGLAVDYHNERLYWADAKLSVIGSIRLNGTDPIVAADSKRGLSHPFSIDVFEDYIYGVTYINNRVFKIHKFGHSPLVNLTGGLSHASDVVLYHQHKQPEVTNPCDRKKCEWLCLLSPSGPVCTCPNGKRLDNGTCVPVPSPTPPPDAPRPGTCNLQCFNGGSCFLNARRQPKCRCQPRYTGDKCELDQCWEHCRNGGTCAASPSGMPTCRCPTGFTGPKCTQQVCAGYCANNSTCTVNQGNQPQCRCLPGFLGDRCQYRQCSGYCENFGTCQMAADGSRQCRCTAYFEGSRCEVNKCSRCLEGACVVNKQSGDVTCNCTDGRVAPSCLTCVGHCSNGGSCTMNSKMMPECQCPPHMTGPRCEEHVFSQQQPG

The results in this text go back to paper PMC4210636 (Chemistry & Biology, 2014).

B1: C-terminally FLAG-tagged human TIMP-3 (tissue inhibitor of metalloproteinases 3) (natural protein, UniProt P35625 24-211, looked up)
chain: CTCSPSHPQDAFCNSDIVIRAKVVGKKLVKEGPFGTLVYTIKQMKMYRGFTKMPHVQYIHTEASESLCGLKLEVNKYQYLLTGRVYDGKMYTGLCNFVERWDQLTLSQRKGLNYRYHLGCNCKIKSCYYLPCFVTSKNECLWTDMLSNFGYPGYQSKHYACIRQKGGYCSWYRGWAPPDKSIINATDP
Broadly, the Ki is the equilibrium dissociation constant of an inhibitor or competing ligand from its target. What is called Kd is the equilibrium constant for the complex coming apart. Low values mean tighter binding, high ones weaker binding. Molecule B1 showed a Ki in assay [1] of 1.36 ± 0.02 nM. This molecule came in with a dissociation constant (Kd) in assay [2] of 28 ± 6 nM.
